The values below come from PMC6238593, “Beetle luciferases with naturally red- and blue-shifted emission” (Life Science Alliance, 2018).

Substitutions are numbered along the chain they refer to.

Assay [1] deals with T1, REPh (red-emitting luciferase from P. hirtus) (Phrixothrix hirtus, UniProt Q9U4U7).
T1 construct: full-length synthetic codon-optimised gene in pET28-MHL, E. coli BL21-CodonPlus-RIL, Ni and size-exclusion purified; about 61 kDa monomer, tetramer in solution; PDB codes 6AAA, 6ABH, 6AC3 printed without assignment to protein
T1 sequence (Q9U4U7 1-546): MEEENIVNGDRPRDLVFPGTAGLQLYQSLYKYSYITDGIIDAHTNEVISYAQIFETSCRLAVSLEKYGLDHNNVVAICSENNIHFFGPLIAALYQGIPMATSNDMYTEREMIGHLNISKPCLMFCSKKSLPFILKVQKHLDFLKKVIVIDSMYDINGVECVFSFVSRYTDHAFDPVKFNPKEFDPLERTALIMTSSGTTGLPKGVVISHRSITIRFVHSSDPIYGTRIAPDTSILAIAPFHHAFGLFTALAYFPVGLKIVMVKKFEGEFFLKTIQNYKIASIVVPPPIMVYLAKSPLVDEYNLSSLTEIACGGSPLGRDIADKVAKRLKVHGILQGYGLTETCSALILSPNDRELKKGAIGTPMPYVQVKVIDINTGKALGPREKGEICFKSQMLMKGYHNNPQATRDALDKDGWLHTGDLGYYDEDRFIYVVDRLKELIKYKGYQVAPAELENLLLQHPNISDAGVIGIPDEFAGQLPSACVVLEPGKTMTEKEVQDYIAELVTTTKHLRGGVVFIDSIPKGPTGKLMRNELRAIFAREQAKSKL
Kind of assay: differential scanning calorimetry. Type of assay: binding. Conditions: 35 °C without ligand, Hepes 20 mM pH 7.8, MgCl2 10 mM, ligand 5 uM (methods) or 5 mM (Figure S10 legend).

The target in assay [2] is T2, GBAv (blue-shifted green-emitting luciferase from A. vivianii) (Amydetes, UniProt A0A3F2YLV6).
T2 construct: full-length synthetic codon-optimised gene in pET28a+, E. coli BL21-CodonPlus-RIL, Ni and size-exclusion purified; monomer; PDB codes 6AAA, 6ABH, 6AC3 printed without assignment to protein
T2 sequence (A0A3F2YLV6 1-547): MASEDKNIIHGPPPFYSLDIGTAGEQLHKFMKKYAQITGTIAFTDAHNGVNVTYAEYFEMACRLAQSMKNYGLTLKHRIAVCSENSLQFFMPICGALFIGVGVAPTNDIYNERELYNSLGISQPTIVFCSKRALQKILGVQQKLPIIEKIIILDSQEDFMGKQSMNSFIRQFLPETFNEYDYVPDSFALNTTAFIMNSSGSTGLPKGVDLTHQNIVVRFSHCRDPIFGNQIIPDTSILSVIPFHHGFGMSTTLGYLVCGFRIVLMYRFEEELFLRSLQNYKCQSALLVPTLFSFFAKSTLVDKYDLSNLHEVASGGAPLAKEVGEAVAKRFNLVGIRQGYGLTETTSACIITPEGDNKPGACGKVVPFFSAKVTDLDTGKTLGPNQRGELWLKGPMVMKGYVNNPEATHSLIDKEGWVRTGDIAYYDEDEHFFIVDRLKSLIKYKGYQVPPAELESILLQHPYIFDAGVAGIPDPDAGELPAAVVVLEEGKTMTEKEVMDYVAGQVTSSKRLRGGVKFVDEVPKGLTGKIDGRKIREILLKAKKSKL
Kind of assay: bioluminescence emission spectra. Type of assay: biochemical. The settings on record: pH 7.0 to 8.0.

Assay [3] addresses T3, REPh (red-emitting luciferase from P. hirtus) (Phrixothrix hirtus, UniProt Q9U4U7, K522A).
T3 construct: full-length synthetic codon-optimised gene in pET28-MHL, E. coli BL21-CodonPlus-RIL, Ni and size-exclusion purified; about 61 kDa monomer, tetramer in solution; PDB codes 6AAA, 6ABH, 6AC3 printed without assignment to protein
T3 sequence (Q9U4U7 1-546 K522A): T1 sequence (Q9U4U7 1-546) with K522A
Kind of assay: differential scanning calorimetry. Type of assay: binding. The settings on record: Hepes 20 mM pH 7.8, MgCl2 10 mM; ligand 5 uM (methods) or 5 mM (Figure S10 legend).

Assay [4] addresses red-emitting luciferase from Phrixothrix hirtus, double mutant Y153A/F162A (Phrixothrix hirtus). The assay can be described thus: SEC; Superdex 200 5/150 GL; MWs estimated with a gel filtration calibration kit.
Assay [5] deals with red-emitting luciferase from Phrixothrix hirtus, mutant F162A (Phrixothrix hirtus). The assay is described as above.
The target in assay [6] is red-emitting luciferase from Phrixothrix hirtus, mutant Y153A (Phrixothrix hirtus). The assay is described as above.
Assay [7] deals with red-emitting luciferase from the glow-worm Phrixothrix hirtus, wild type (Phrixothrix hirtus). The assay is described as above.
Assay [8] shares this target. The assay can be described thus: crystal structure; REPh free enzyme, P3(1)21 crystal form, 3.60 Å; PEG 3350 19-21%, bis-tris propane 100 mM pH 6.0, ammonium sulfate 200 mM.
The target is the same in assay [9]. The assay can be described thus: crystal structure; REPh free enzyme, P1 crystal form, 3.05 Å; only the N-terminal domains seen; PEG 3350 19-21%, bis-tris propane 100 mM pH 6.0, ammonium sulfate 200 mM.

Regarding `Nc1ncnc2c1ncn2[C@@H]1O[C@H](COP(=O)(O)OP(=O)(O)OP(=O)(O)O)[C@@H](O)[C@H]1O` [ATP], the Tm was 36 and 41 in [1] (two transitions with ligand, in °C (unit assumed)); “signal was detectable only after the addition of substrate, luciferin or ATP” in assay [3]. The bioluminescence emission spectra result in assay [2] (co-substrate luciferin) is reported as “The emission of WT GBAv was pH-dependent”.

Turning to `O=C(O)[C@H]1CSC(c2nc3ccc(O)cc3s2)=N1` [firefly luciferin], the Tm in assay [1] (Tm with ligand) worked out at 41 °C. The bioluminescence emission spectra entry in [2] (co-substrate ATP) is “The emission of WT GBAv was pH-dependent”.

Consider “red-emitting luciferase from Phrixothrix hirtus, double mutant Y153A/F162A (enzyme)”, for which, in [4], the stoichiometry N was 2.

Consider “red-emitting luciferase from Phrixothrix hirtus, mutant F162A (enzyme)”, for which, in assay [5], the stoichiometry N is 2.

Consider “red-emitting luciferase from Phrixothrix hirtus, mutant Y153A (enzyme)”, for which, in assay [6], the stoichiometry N is 2.

For “red-emitting luciferase from the glow-worm Phrixothrix hirtus, wild type (enzyme)”, the stoichiometry N was 4 in [7], 4 in assay [8] and 8 in [9].
